According to US7405286B2, “Stars—A muscle-specific actin-binding protein” (The Board of Regents of the University of Texas System, priority 2002, dated 2008):
“Also recorded” adds a separate entry of the source.

Experiments:
[1] = tested on: F-actin; test: Immunofluorescence / Phalloidin-TRITC staining of transfected COS cells; type: cell-based; conditions: transfected COS cells, Myc-tagged proteins
Method: (§1) Transient Transfections, Reporter Assays and Immunofluorescence Microscopy. COS cells were maintained in DMEM with 10% FBS. Eighteen hours after plating, the medium was changed to serum-free medium and transfections were performed at 50% confluency using FuGENE reagent-6 (Roche Molecular Biochemicals) following manufacturer's instructions. Each transfection used 0.15 μg of plasmid DNA for the reporter assays, and 0.5-1.0 μg immunohistochemistry. Cytochalasin D 2 μM (Sigma-Aldrich), and Y-27632 75 μM (Tocris) were added directly just after transfection. Latrunculin B 0.5 μM (dissolved in 10% ethanol, Calbiochem) was added 12 hr after transfection and 10% ethanol (final concentration 0.01%) was added to control wells. Cells were harvested 36 hr after transfection and their luciferase and β-galactosidase activity were measured.
For measuring immunofluorescence, cells were rinsed with PBS and fixed in 4% paraformaldehyde for 10 min on ice. After rinsing with PBS, COS cells were incubated in 0.1% Triton X-100 in PBS for 5 min on ice. For rat neonatal cardiomyocytes, 1% Triton X-100 in PBS was used. Cells were blocked for 20 min at room temperature in 0.5% BSA in PBS for COS cells and in 1% BSA plus 3% goat serum in PBS for rat cardiomyocytes. Then, cells were incubated with first antibody diluted in 0.5% BSA in PBS for 30-60 min at room temperature or overnight at 4° C. Anti c-myc monoclonal antibody 9E10 (Santa Cruz) was used at a 1:200 dilution. Other antibodies were anti α-actinin monoclonal antibody (1:400; Sigma-Aldrich), α-tubulin antibody (1:2000; Sigma-Aldrich) and anti-vimentin antibody (1:500; Sigma-Aldrich). Secondary antibodies were anti mouse/rabbit IgG FITC or Texas red (Vector) used at a 1:200 dilution incubated with or without Phalloidin-TRITC (1:500; Sigma Aldrich).

[2] = tested on: actin; test: Co-immunoprecipitation of Myc-tagged proteins with actin in COS cells; type: binding; conditions: anti-Myc immunoprecipitation, anti-actin Western blot
Method: Western Blot and Co-immunoprecipitation Assay. Immunoprecipitation and western blot analysis was performed as described previously (Lu et al., 2000). For immunoprecipitation, cells were incubated with 1 μg anti c-myc polyclonal antibody A14 (Santa Cruz). Western blots were performed with anti-actin monoclonal antibody C4 (1:100; Roche Molecular Biochemicals) or anti c-myc monoclonal antibody 9E10 (1:1000; Santa Cruse) followed by incubation with secondary antibody HRP-conjugated anti mouse-IgG (Santa Cruse, Vector). To detect signals, blots were incubated with ECL (Santa Cruz) for 1 min, and exposed to film (Eastman Kodak Co).

[3] = tested on: SM22 promoter; test: SM22-luciferase reporter assay in transiently transfected COS cells; type: cell-based; conditions: COS cells, STARS and deletion mutants
Text: STARS Expression Plasmids. STARS expression constructs were generated using the pcDNA3.1 mammalian expression vector (Invitrogen) which was modified to contain an amino-terminal Myc-tag. Constitutively active RhoA (L63) and C3 transferase in Prk5 were generously provided by Dr. Alan Hall (University College, London, United Kingdom). The SM22-luciferase reporter 1343 bp promoter has been previously described (Li et al., 1995). The smooth muscle α actin-luciferase reporter contained the 4 kb promoter region ligated into the pBL3basic vector (Promega). The ANF reporter contained the 638 bp promoter region (a generous gift from Dr. Mona Nemer, Universite de Montreal, Montreal, Quebec, Canada). The 4× cfos reporter contained four tandem copies of the cfos CArG box with flanking sequences, as described (Chang et al., 2001). CMV-lacZ (Promega) was used as an internal control for transfection efficiency.
as §1

B1: N233: STARS deletion mutant lacking residues from the carboxy-terminus into the conserved region (protein)
chain: MAPGEKESGEGPAKSALRKIRTATLVISLARGWQQWANENSIRQAQEPTGWLPGGTQDSPQAPKPITPPTSHQKAQSAPKSPPRLPEGHGDGQSSEKAPEVSHIKKKEVSKTVVSKTYERGGDVSHLSHRYERDAGVLEPGQPENDIDRILHSHGSPTRRRKCANLVSELTKGWRVMEQEEPTWRSDSVDTEDSGYGGEAEERPEQDGVQVAVVRIKRPLPSQVNRFTEKLNC
modifications: left off: small tags and cut ends
notes: STARS deletion mutant lacking residues from the carboxy-terminus into the conserved region
[1]
  association with F-actin / actin stress fibers: did not affect the association with F-actin
  bundling of actin stress fibers: abolished the ability of STARS to bundle actin stress fibers
[2]
  co-immunoprecipitation with actin: did not bind actin

B2: N100: STARS deletion mutant lacking residues from the carboxy-terminus into the conserved region (protein)
chain: MAPGEKESGEGPAKSALRKIRTATLVISLARGWQQWANENSIRQAQEPTGWLPGGTQDSPQAPKPITPPTSHQKAQSAPKSPPRLPEGHGDGQSSEKAPE
modifications: left off: small tags and cut ends
notes: as for B1
[1]
  association with F-actin / actin stress fibers: did not affect the association with F-actin
  bundling of actin stress fibers: abolished the ability of STARS to bundle actin stress fibers
[2]
  co-immunoprecipitation with actin: did not bind actin

B3: N101-233: STARS deletion mutant lacking residues from the carboxy-terminus into the conserved region (protein)
chain: VSHIKKKEVSKTVVSKTYERGGDVSHLSHRYERDAGVLEPGQPENDIDRILHSHGSPTRRRKCANLVSELTKGWRVMEQEEPTWRSDSVDTEDSGYGGEAEERPEQDGVQVAVVRIKRPLPSQVNRFTEKLNC
modifications: left off: small tags and cut ends
notes: as for B1
[1]
  association with F-actin / actin stress fibers: did not affect the association with F-actin
  bundling of actin stress fibers: abolished the ability of STARS to bundle actin stress fibers
[2]
  co-immunoprecipitation with actin: did not bind actin

B4: C142: STARS deletion mutant that encoded only the conserved carboxy-terminal region (142 amino acids) (protein)
chain: KAQQKYSPVGNLKGRWQQWADEHIQSQKLNPFSEEFDYELAMSTRLHKGDEGYGRPKEGTKTAERAKRAEEHIYREMMDMCFIICTMARHRRDGKIQVTFGDLFDRYVRISDKVVGILMRARKHGLVDFEGEMLWQGRDDHV
modifications: left off: small tags and cut ends
[3]
  activation of SM22-luciferase / SRF transcription, in words: as effective as the full-length protein; also recorded: activate SRF transcription
[1]
  association with F-actin / actin stress fibers: associated with F-actin
  bundling of actin stress fibers: increased stress fibers; also recorded: induce actin bundles
[2]
  co-immunoprecipitation with actin: co-immunoprecipitated with actin

B5: Del234-247: small internal STARS deletion mutant within the conserved region (protein)
chain: MAPGEKESGEGPAKSALRKIRTATLVISLARGWQQWANENSIRQAQEPTGWLPGGTQDSPQAPKPITPPTSHQKAQSAPKSPPRLPEGHGDGQSSEKAPEVSHIKKKEVSKTVVSKTYERGGDVSHLSHRYERDAGVLEPGQPENDIDRILHSHGSPTRRRKCANLVSELTKGWRVMEQEEPTWRSDSVDTEDSGYGGEAEERPEQDGVQVAVVRIKRPLPSQVNRFTEKLNCRWQQWADEHIQSQKLNPFSEEFDYELAMSTRLHKGDEGYGRPKEGTKTAERAKRAEEHIYREMMDMCFIICTMARHRRDGKIQVTFGDLFDRYVRISDKVVGILMRARKHGLVDFEGEMLWQGRDDHV
modifications: left off: small tags and cut ends
notes: small internal STARS deletion mutant within the conserved region
[3]
  activation of SM22-luciferase / SRF transcription, in words: activate SRF transcription
[1]
  bundling of actin stress fibers: induce actin bundles
[2]
  co-immunoprecipitation with actin: weak actin-binding activity

B6: Del248-262: small internal STARS deletion mutant within the conserved region (protein)
chain: MAPGEKESGEGPAKSALRKIRTATLVISLARGWQQWANENSIRQAQEPTGWLPGGTQDSPQAPKPITPPTSHQKAQSAPKSPPRLPEGHGDGQSSEKAPEVSHIKKKEVSKTVVSKTYERGGDVSHLSHRYERDAGVLEPGQPENDIDRILHSHGSPTRRRKCANLVSELTKGWRVMEQEEPTWRSDSVDTEDSGYGGEAEERPEQDGVQVAVVRIKRPLPSQVNRFTEKLNCKAQQKYSPVGNLKGNPFSEEFDYELAMSTRLHKGDEGYGRPKEGTKTAERAKRAEEHIYREMMDMCFIICTMARHRRDGKIQVTFGDLFDRYVRISDKVVGILMRARKHGLVDFEGEMLWQGRDDHV
modifications: left off: small tags and cut ends
notes: as for B5
[3]
  activation of SM22-luciferase / SRF transcription, in words: activate SRF transcription
[1]
  bundling of actin stress fibers: induce actin bundles
[2]
  co-immunoprecipitation with actin: weak actin-binding activity

B7: Del263-279: small internal STARS deletion mutant within the conserved region (protein)
chain: MAPGEKESGEGPAKSALRKIRTATLVISLARGWQQWANENSIRQAQEPTGWLPGGTQDSPQAPKPITPPTSHQKAQSAPKSPPRLPEGHGDGQSSEKAPEVSHIKKKEVSKTVVSKTYERGGDVSHLSHRYERDAGVLEPGQPENDIDRILHSHGSPTRRRKCANLVSELTKGWRVMEQEEPTWRSDSVDTEDSGYGGEAEERPEQDGVQVAVVRIKRPLPSQVNRFTEKLNCKAQQKYSPVGNLKGRWQQWADEHIQSQKLHKGDEGYGRPKEGTKTAERAKRAEEHIYREMMDMCFIICTMARHRRDGKIQVTFGDLFDRYVRISDKVVGILMRARKHGLVDFEGEMLWQGRDDHV
modifications: left off: small tags and cut ends
notes: as for B5
[3]
  activation of SM22-luciferase / SRF transcription, in words: activate SRF transcription
[1]
  bundling of actin stress fibers: induce actin bundles
[2]
  co-immunoprecipitation with actin: weak actin-binding activity
